# According to paper PMC6396373, “The herpesviral antagonist m152 reveals differential activation of STING‐dependent IRF and NF‐κB signaling and STING's dual role during MCMV infection” (The EMBO Journal, 2019):
# B1: endogenous murine STING (natural protein)
# chain: MPYSNLHPAIPRPRGHRSKYVALIFLVASLMILWVAKDPPNHTLKYLALHLASHELGLLLKNLCCLAEELCHVQSRYQGSYWKAVRACLGCPIHCMAMILLSSYFYFLQNTADIYLSWMFGLLVLYKSLSMLLGLQSLTPAEVSAVCEEKKLNVAHGLAWSYYIGYLRLILPGLQARIRMFNQLHNNMLSGAGSRRLYILFPLDCGVPDNLSVVDPNIRFRDMLPQQNIDRAGIKNRVYSNSVYEILENGQPAGVCILEYATPLQTLFAMSQDAKAGFSREDRLEQAKLFCRTLEEILEDVPESRNNCRLIVYQEPTDGNSFSLSQEVLRHIRQEEKEEVTMNAPMTSVAPPPSVLSQEPRLLISGMDQPLPLRTDLI
# notes: stimulator of interferon genes (STING), endogenous in immortalized B6J mouse embryonic fibroblasts; Dimers seen on non-reducing SDS-PAGE after ISD stimulation; also called Endogenous STING; source: endogenous, iMEF lysate
# Biological target: the molecule itself
# Assay: non-reducing SDS-PAGE with immunoblot; iMEF stably expressing ev or m152-V5, stimulated with 10 μg/ml ISD (also with Brefeldin A); lysis in 25 mM Tris-HCl pH 7.6, 150 mM NaCl, 1% IGEPAL CA-630, 1% sodium deoxycholate, 0.1% SDS; anti-STING blot for STING dimers
protein,measurement,value
B1,stoichiometry N,2
